{
  "source": "paper PMC5454392",
  "about": "“Selective BET bromodomain inhibition as an antifungal therapeutic strategy” (Nature Communications, 2017)",
  "key": {"[1]": {"target": "T1, CaBdf1 BD1 Y248F (Candida albicans, UniProt Q5A4W8, Y248F)", "T1 construct": "made in house; host or cells: E. coli BL21(DE3), inferred from the wild-type GST construct", "T1 sequence (Q5A4W8 193-327 Y248F)": "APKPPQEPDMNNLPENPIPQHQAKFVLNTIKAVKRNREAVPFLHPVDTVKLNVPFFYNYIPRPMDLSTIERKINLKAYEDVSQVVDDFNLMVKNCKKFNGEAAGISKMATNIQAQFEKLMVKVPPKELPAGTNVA", "assay": "Histone peptide microarray binding, YF mutant;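 on CaBdf1 BD1 Normalized (0 to 100%) YF mutant: normalized to spotted c-myc peptide positive control signal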;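 on CaBdf1 BD2 Normalized (0 to 100%) YF mutant: normalized to spotted c-myc peptide positive control signal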", "parameters": "species or system C. albicans", "conditions": "YF mutant BD1; for CaBdf1 BD1 Normalized (0 to 100%) YF mutant: normalized array signal; for CaBdf1 BD1 Raw data YF mutant: peptide array signal", "method": "(§1) In short, arrays were blocked and incubated with 1 μM of purified CaBdf1 BD1 or BD2. Arrays were incubated with recombinant BDs for 2 h at 4 °C in binding buffer (Tris-HCl 50 mM pH 7.4, NP-40 0.1%, NaCl 150 mM, glycerol 10%). […] Assays were performed in duplicate. Images were acquired on a Bio-Rad ChemiDoc XRS Imaging machine and data were quantified using the array analyser software provided by Active Motif."}, "[2]": {"target": "T2, CaBdf1 BD2 Y425F (Candida albicans, UniProt Q5A4W8, Y425F)", "T2 construct": "made in house; host or cells: E. coli BL21(DE3), inferred from the wild-type GST construct", "T2 sequence (Q5A4W8 361-501 Y425F)": "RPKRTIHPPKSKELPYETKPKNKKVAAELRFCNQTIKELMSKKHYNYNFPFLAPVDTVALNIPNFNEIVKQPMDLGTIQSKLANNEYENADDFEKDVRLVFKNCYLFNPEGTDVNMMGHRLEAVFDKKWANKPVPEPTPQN", "assay": "Histone peptide microarray binding, YF mutant", "parameters": "species or system C. albicans", "conditions": "YF mutant BD2; for CaBdf1 BD2 Normalized (0 to 100%) YF mutant: normalized array signal", "method": "as §1"}, "[3]": {"target": "T3, CaBdf1 BD1 (Candida albicans, UniProt Q5A4W8)", "T3 construct": "made in house; host or cells: E. coli BL21(DE3)", "T3 sequence (Q5A4W8 whole entry, looked up)": "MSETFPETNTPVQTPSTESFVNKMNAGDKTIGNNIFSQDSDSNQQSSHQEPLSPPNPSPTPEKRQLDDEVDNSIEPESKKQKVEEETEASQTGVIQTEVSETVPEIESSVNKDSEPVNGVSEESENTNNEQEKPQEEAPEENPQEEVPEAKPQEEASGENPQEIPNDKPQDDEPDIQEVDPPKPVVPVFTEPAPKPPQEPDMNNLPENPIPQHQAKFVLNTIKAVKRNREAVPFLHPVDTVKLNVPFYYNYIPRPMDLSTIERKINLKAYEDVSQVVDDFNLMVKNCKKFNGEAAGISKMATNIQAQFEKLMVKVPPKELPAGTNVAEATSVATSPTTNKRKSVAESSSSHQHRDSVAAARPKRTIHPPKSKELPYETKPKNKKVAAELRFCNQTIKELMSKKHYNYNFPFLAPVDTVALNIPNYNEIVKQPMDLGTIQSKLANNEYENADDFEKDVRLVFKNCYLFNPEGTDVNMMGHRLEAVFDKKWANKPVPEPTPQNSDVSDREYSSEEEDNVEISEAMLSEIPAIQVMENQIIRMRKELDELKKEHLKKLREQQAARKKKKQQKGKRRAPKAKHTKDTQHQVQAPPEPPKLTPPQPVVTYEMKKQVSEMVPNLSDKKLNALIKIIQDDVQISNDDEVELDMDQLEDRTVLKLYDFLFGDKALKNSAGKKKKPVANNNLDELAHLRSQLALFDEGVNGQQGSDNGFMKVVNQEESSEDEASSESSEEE", "type": "binding", "conditions": "wild-type BD1; for CaBdf1 BD1 Normalized (0 to 100%) WT: normalized array signal; for CaBdf1 BD1 Raw data WT: peptide array signal", "method": "(§2) In short, arrays were blocked and incubated with 1 μM of purified CaBdf1 BD1 or BD2. Arrays were incubated with recombinant BDs for 2 h at 4 °C in binding buffer (Tris-HCl 50 mM pH 7.4, NP-40 0.1%, NaCl 150 mM, glycerol 10%). […] Assays were performed in duplicate."}, "[4]": {"target": "T4, CaBdf1 BD2 (Candida albicans, UniProt Q5A4W8)", "T4 construct": "made in house; host or cells: E. coli BL21(DE3)", "T4 sequence (Q5A4W8 whole entry, looked up)": "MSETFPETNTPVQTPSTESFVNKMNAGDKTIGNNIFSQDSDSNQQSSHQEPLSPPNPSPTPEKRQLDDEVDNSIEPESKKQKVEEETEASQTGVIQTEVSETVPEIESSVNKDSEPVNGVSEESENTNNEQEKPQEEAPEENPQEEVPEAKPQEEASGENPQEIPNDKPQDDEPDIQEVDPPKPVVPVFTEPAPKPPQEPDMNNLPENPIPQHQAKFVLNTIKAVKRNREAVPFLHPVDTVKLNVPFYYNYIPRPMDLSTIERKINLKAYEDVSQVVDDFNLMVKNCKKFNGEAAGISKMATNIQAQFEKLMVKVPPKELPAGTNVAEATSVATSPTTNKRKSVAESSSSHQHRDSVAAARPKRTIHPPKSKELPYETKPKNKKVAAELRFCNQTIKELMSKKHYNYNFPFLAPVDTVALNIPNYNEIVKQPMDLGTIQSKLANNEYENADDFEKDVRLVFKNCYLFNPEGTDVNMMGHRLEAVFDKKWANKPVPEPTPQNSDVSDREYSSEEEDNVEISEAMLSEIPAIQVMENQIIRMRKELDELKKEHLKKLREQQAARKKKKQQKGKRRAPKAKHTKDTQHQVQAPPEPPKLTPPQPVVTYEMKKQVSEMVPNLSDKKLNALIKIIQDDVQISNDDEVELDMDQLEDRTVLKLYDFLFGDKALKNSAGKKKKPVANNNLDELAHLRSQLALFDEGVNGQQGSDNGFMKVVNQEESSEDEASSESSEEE", "type": "binding", "conditions": "wild-type BD2; for CaBdf1 BD2 Normalized (0 to 100%) WT: normalized array signal; for CaBdf1 BD2 Raw data WT: peptide array signal", "method": "as §2"}, "[5]": {"target": "T5, CaBdf1 BD1 (GST-tagged, wild-type) (Candida albicans (strain SC5314 / ATCC …, UniProt Q5A4W8))", "T5 chain": "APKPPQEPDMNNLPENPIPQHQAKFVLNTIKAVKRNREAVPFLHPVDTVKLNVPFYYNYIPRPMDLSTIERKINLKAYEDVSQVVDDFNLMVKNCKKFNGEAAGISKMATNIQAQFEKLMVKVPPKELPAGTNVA", "assay": "histone peptide array (Active Motif MODified), 1 uM GST-tagged bromodomain, anti-GST detection, normalized mean intensity"}, "[6]": {"target": "T6, CaBdf1 BD2 (GST-tagged, wild-type) (Candida albicans (strain SC5314 / ATCC …, UniProt Q5A4W8))", "T6 chain": "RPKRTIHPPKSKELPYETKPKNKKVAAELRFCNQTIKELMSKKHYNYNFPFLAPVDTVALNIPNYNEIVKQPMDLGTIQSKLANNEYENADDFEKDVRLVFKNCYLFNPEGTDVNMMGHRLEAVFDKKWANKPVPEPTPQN", "assay": "histone peptide array (Active Motif MODified), 1 uM GST-tagged bromodomain, anti-GST detection, normalized mean intensity"}},
  "note": "Where two headings read alike, the source gives them in different places. Square brackets hold non-standard residues; d marks the D form. Ends that are not written are not given here. Arg(Me2a) = CN(C)C(=N)NCCC[C@H](N)C(=O)O; pT = C[C@@H](OP(=O)(O)O)[C@H](N)C(=O)O; Me2a = not defined here;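 on CaBdf1 BD1 Normalized (0 to 100%) WT: normalized to spotted c-myc peptide positive control signal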;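 on CaBdf1 BD2 Normalized (0 to 100%) WT: normalized to spotted c-myc peptide positive control signal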",
  "data": [
    {"molecule": "A Rme2s T Kme1 Q T A R Kme1 S T G G K A P R K Q", "values": [
      {"measurement": "CaBdf1 BD1 Normalized (0 to 100%) YF mutant", "setting": "[1]", "result": 0.658, "unit": "%"},
      {"measurement": "CaBdf1 BD1 Raw data YF mutant", "setting": "[1]; first of two raw-data columns", "result": 0.006516},
      {"measurement": "CaBdf1 BD1 Raw data YF mutant", "setting": "[1]", "result": 0.005144},
      {"measurement": "CaBdf1 BD2 Normalized (0 to 100%) YF mutant", "setting": "[2]", "result": 0.342, "unit": "%"},
      {"measurement": "CaBdf1 BD2 Raw data YF mutant", "setting": "[2]; peptide array signal, first of two raw-data columns", "result": 0.003398},
      {"measurement": "CaBdf1 BD1 Normalized (0 to 100%) WT", "setting": "[3]", "result": 0.29, "unit": "%"},
      {"measurement": "CaBdf1 BD1 Raw data WT", "setting": "[3]; first of two raw-data columns", "result": 0.003741},
      {"measurement": "CaBdf1 BD1 Raw data WT", "setting": "[3]", "result": 0.004276},
      {"measurement": "CaBdf1 BD2 Normalized (0 to 100%) WT", "setting": "[4]", "result": 0.518, "unit": "%"},
      {"measurement": "CaBdf1 BD2 Raw data WT", "setting": "[4]; first of two raw-data columns", "result": 0.01579},
      {"measurement": "CaBdf1 BD2 Raw data WT", "setting": "[4]", "result": 0.005491}
    ]},
    {"molecule": "A Rme2s T Kme1 Q T A R Kme3 S T G G K A P R K Q", "values": [
      {"measurement": "CaBdf1 BD1 Normalized (0 to 100%) YF mutant", "setting": "[1]", "result": 0.727, "unit": "%"},
      {"measurement": "CaBdf1 BD1 Raw data YF mutant", "setting": "[1]; first of two raw-data columns", "result": 0.007202},
      {"measurement": "CaBdf1 BD1 Raw data YF mutant", "setting": "[1]", "result": 0.002743},
      {"measurement": "CaBdf1 BD2 Normalized (0 to 100%) YF mutant", "setting": "[2]", "result": 0.195, "unit": "%"},
      {"measurement": "CaBdf1 BD1 Normalized (0 to 100%) WT", "setting": "[3]", "result": 0.326, "unit": "%"},
      {"measurement": "CaBdf1 BD1 Raw data WT", "setting": "[3]; first of two raw-data columns", "result": 0.00481},
      {"measurement": "CaBdf1 BD1 Raw data WT", "setting": "[3]", "result": 0.003741},
      {"measurement": "CaBdf1 BD2 Normalized (0 to 100%) WT", "setting": "[4]", "result": 0.259, "unit": "%"},
      {"measurement": "CaBdf1 BD2 Raw data WT", "setting": "[4]; first of two raw-data columns", "result": 0.0151},
      {"measurement": "CaBdf1 BD2 Raw data WT", "setting": "[4]", "result": 0.001373}
    ]},
    {"molecule": "ARTKQTARKSTGGKAPRKQ (A R T K Q T A Rme2s Kme3 S pT G G K A P R K Q)", "values": [
      {"measurement": "binding score", "setting": "[5]", "result": 0.00399},
      {"measurement": "binding score", "setting": "[6]", "result": 0.0037}
    ]},
    {"molecule": "A[Arg(Me2a)]TKQTARKSTGGKAPRKQ", "values": [
      {"measurement": "binding score", "setting": "[5]", "result": 0.000363},
      {"measurement": "binding score", "setting": "[6]", "result": 0.00296}
    ]},
    {"molecule": "AR(Me2s)TK(Me3)QTAR(Me2a)K(Ac)STGGKAPRKQ (reading uncertain)", "values": [
      {"measurement": "binding score", "setting": "[5]", "result": 0.0406},
      {"measurement": "binding score", "setting": "[6]", "result": 0.0037}
    ]},
    {"molecule": "ARTKQTARKSTGGKAPRKQ (A Rme2a T Kme1 Q T A Rme2a Kac S T G G K A P R K Q)", "values": [
      {"measurement": "binding score", "setting": "[5]", "result": 0.0254},
      {"measurement": "binding score", "setting": "[6]", "result": 0.00333}
    ]},
    {"molecule": "AR(Me2a)TK(Me3)QTARK(Me2)STGGKAPRKQ (reading uncertain)", "values": [
      {"measurement": "binding score", "setting": "[5]", "result": 0.00145},
      {"measurement": "binding score", "setting": "[6]", "result": 0.00296}
    ]},
    {"molecule": "AR(Me2a)[pT]K(Me)QTARKSTGGKAPRKQ (reading uncertain)", "values": [
      {"measurement": "binding score", "setting": "[5]", "result": 0.00471},
      {"measurement": "binding score", "setting": "[6]", "result": 0.00037}
    ]},
    {"molecule": "A[Arg(Me2a)]TK(Ac)QTARKSTGGKAPRKQ", "values": [
      {"measurement": "binding score", "setting": "[5]", "result": 0.00363},
      {"measurement": "binding score", "setting": "[6]", "result": 0.00148}
    ]}
  ]
}
